# Test results from article PMC10566112.
# Biological target: dopamine D2 receptor labelled with mCherry (D2R-mCherry) (UniProt P14416)
# Chain of UniProt P14416 (P14416 whole entry): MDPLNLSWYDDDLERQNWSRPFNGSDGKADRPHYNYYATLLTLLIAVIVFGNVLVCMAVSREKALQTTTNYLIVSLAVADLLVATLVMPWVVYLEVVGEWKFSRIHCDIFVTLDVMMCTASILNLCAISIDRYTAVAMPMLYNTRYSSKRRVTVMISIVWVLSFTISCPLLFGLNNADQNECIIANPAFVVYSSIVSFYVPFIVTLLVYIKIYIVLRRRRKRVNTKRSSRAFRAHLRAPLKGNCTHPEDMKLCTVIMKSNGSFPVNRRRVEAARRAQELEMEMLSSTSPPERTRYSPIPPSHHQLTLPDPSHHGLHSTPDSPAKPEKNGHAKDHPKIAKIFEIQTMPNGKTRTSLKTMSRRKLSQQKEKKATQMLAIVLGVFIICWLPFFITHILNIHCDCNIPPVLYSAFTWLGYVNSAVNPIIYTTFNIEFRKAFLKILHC
row,Substance,"intracellular cAMP level in HEK293 cells after stimulation of D2R with 1 μM sumanirole, as percent of control (stimulated nontransfected cells) (% of the control)"
1,Gαi3β1γ2 heterotrimer (Gαi3-Citrine with Gβ1 and Gγ2) (from UniProt P08754 1-354; P62873 1-340; P59768 1-71) (complex),20
2,Gαi3β1γ9 heterotrimer (Gαi3-Citrine with Gβ1 and Gγ9) (from UniProt P08754 1-354; P62873 1-340; O14610 1-69) (complex),70.4
3,Gαi3β1γ10 heterotrimer (Gαi3-Citrine with Gβ1 and Gγ10) (from UniProt P08754 1-354; P62873 1-340; P50151 1-68) (complex),14.4
